Test: soluble on expression in E. coli; label from the status in PepcDB or PDB records

Sequence | soluble on expression in E. coli
MMEGLDDGPDFLSEEDRGLKAINVDLQSDAALQVDISDALSERDRVNFTVHTKSSLPNFKQNEFSVVRQHEEFIWLHDSFVENEDYAGYIIPPAPPRPDFDASREKLQKLGEGEGSMTKEEFTKMKQELEAEYLAIFKKTVAMHEVFLCRVAAHPILRKDLNFHVFLEYNQDLSVRGKNKKEKLEDFFKNMVKSADGVIVSGVKDVDDFFEHERTFLLEYHNRVKDASAKSDRMTRSHKSAADDYNRIGSSLYALGTQDSTDICKFFLKVSELFDKTRKIEARVSADEDLKLSDLLKYYLRESQAAKDLLYRRSRSLVDYENANKALDKARAKNKDVLQAETSQQLCCQKFEKISESAKQELIDFKTRRVAAFRKNLVELAELELKHAKGNLQLLQNCLAVLNGDT | soluble
LAMVDNLQGDSGRGYYLEMLIGTPPQKLQILVDTGSSNFAVAGTPHSYIDTYFDTERSSTYRSKGFDVTVKYTQGSWTGFVGEDLVTIPKGFNTSFLVNIATIFESENFFLPGIKWNGILGLAYATLAKPSSSLETFFDSLVTQANIPNVFSMQMCGAGLPVAGSGTNGGSLVLGGIEPSLYKGDIWYTPIKEEWYYQIEILKLEIGGQSLNLDCREYNADKAIVDSGTTLLRLPQKVFDAVVEAVARASLIPEFSDGFWTGSQLACWTNSETPWSYFPKISIYLRDENSSRSFRITILPQLYIQPMMGAGLNYECYRFGISPSTNALVIGATVMEGFYVIFDRAQKRVGFAASPCAEIAGAAVSEISGPFSTEDVASNCVPA | soluble
MSAPWETLLDWWFGTSSDAAEVVAQRNGLWFGKNVCQDADAGGRFGDLVNQALDGGLQEWTAEADGWLALILLLDQLPRMIYRDTPRAYAGDARAQRVVREGLEKGFDRQLPPVRRVFAYLVLEHAEDLPSQERAVACFRDLRDQVGGSVRKPFDDFYDYAERHHAVVARFGRFPHRNAILGRPSSEEETAFLREPGSRF | not soluble
SNAMTKIYFAGPLFSQADLRYNAYLVEQIRQLDKTIDLYLPQENAAINDKSAYADSKMIALADTENVLASDLLVALLDGPTIDAGVASEIGVAYAKGIPVVALYTDSRQQGADNHQKLDALNEIAENQFHYLNLYTVGLIKLNGRVVSSEEDLLEEIKQRLS | soluble
MTELARLKFYATQPHTCSYLPEEQATTLFLDPSQPMDVQVYADLSDMGFRRSGDHLYRPHCQNCSACVPARIPVNLFVPDRQQKRILKRNADIQVSSAKPVFTQEYFDLYQRYIEQRHADGDMFPPSREQFSTFLVRDLPFSRFYEFRVDQRLLAVAVTDLLPNGLSAVYTFYEPDEERRSLGRYAILWQIGEATRLQLQAVYLGYWIKNCKKMNYKTQYRPIELLTNQRWVTLYLEHHHHHH | not soluble
GMNGFSQLEGLRGHPSVVRVIGHRGARGVMPENTLEGFAFTLAAGVRALEFDVVMTADGVPVVTHNHHLANAMTRDGQGHWLTGAERQVAEMTYAEIRALDVGGLDGRTVYGRRFPDQAFLTGIHVPRLGELLDLCAGYGDQAPYLLLELKSDPALMHDHAARAEMVAAVLADVRRYRMEPRTVMHSFDWALLGECRRQAPDLPTSYLSQLPENADDPGEDSAKPVGPDYDRMTESLPQAVASAGGQLWCPYFLDVTPELVAEAHDLGLIVLTWTVNEPEDIRRMATTGVDGIVTDYPGRTQRILIDMGLSWT | soluble
SSRFSITYKHDFYGGVEGEVTGGSALLCCPQEDIKSFLSEPVYSRLCASAWALTIECPSDPRTPSGTPGPLGTVPWRWGSLGMGGPLLPTAPTPRERERRGGQPAQRWSAEEGQEGSADGEAEATQELILAVVQEGAEGQCQGQGRKLLLQRGAHDPVTVHRAFKKEVGLGQVQLIPKGGTGVLHPGAGLKLHTHLQLVTGFVVIRRMHACLAQRYCSQPVVQCVFPS | soluble
MDNKIVYVVSDSVGETADLVVRAAMGQFPFAPDIRRVPYVEDTGTLKEVISIAKSNQALICFTLVKPDMRQYLVTEAAKEGVEAYDIIGPLIDQIEEITGQVPRYEPGVVRRLDEEYFKKIEAIEFAVKYDDGRDARGILKADIVLIGVSRTSKTPLSQYLAHNKRLKVANVPLVPEVDPPEELYQVAKEKCFGLKITPDKLNHIRKERLKSLGLSDGATYANINRIQEEIDHFEEVISRINCQVIDVSNKAIEETANIIVNAVQNQKMF | not soluble
GPGSMQEEVTEHKYNIVFSRDPVPSGLSEEQYYPMRLSNGSAYLCVLPDITVEEKKTLQAEDSELDVPLSLEHVAVVNRALKNMCYTMEESWWTYRLCWGSGVEQFHRSAVAGDSKSNAPKQMKEDPHFVLGVAPPADVLDLRYGVNTKGLRYIYTIYSDGLTCDLTQLPRTTEVQLYCAREGEGNSPTMRVREAEVCRYIVSLTAKEVCLLGLKEIQQRYGVITCHETKPTNTVDWNNKQQG | not soluble
MINMKFFNRVEEIKEILSILEEEPNLIYFIYGPINSGKTALINEIINNRLDKNKYVVFYIDLREIFISKYDEFEAKLRATKTFGFRLIIEVLFEEYEDDKKPIEIIRSLIKDAPSLCGIPTPKNTLEEILKKKTTKNVFKYITNILMDIKREGKQPIIIIDELQKIGDMKINGFLIYELFNYFVSLTKHKHLCHVFCLSSDSLFIERVYNEAMLKERVDYILVDDFDKETALKFIDFLSEEILNKKLSDEDKELIYSYVGGKPILIINVIGKLKHKNLKDVLNILLMDEISKLKDFLSNLDYIKPKVNIEEEIIEIRKEDIINALKLFKGKYEIEVDKIPKAVYVYLVKKNILFLYPQRGTLKPQSFLVWNAIKRVL | not soluble
MARDVKKRGKPAYTNRRNRQKYLKKKDNKKKLSKSAVPIIKYTWDETKTPRENVRDMGIAFNPNDAVPIAEHRKEIIDAEPIDGVSIVVPKPEKKVTGRKKNEKQAAHIISNLEQQVKEEEEARAGQDRKFRLFHRETELCVYMLARHGEDFQAMTRDPKNLWQYTPKQWAKKIRTHKESEMCKFLETA | not soluble
MGSDKIHHHHHHMSQQTGEASKIKGRFRNSHKVYGAGLGDLVGIIKAYLGAKRSAPSPKSAVPLQPITPAELARPQARLYRLGHSTVLMYLDGKWLLTDPVFSERASPFQWAGPKRFHQSPIAIEALPDIDGLILSHDHYDHLDTAAIKALAARVKHFYMPLGVGKRLIRLGIDKARITELDWWQSVQLGTIELTATPAQHFSGRGLFDRDATLWAGWAIHGEQARVFFSGDSGYFPGFAEIGERLGPFDVTLMETGAYNELWRDIHMMPEESLQAHLDVKGQLMVPIHNGTFDLALHDWFEPLERIRALAWDRSVKIATPIFGEALSLTLPGSGSDWWAQESAISTGVDAREKGRAPAAESSMVGIAES | not soluble
MSLMRKNETREFLIEDIEFPAVGVAFYNDKKVYIKGAVPGQKVLARVSKVRREKIEAKLKEIVTNIPGAAQPKCPDFGVCGGCVHQFLPYEKQLEFKEREVLKLFKDAKIEGFEYLGILGSPEKEEYRNKMEYTFGDFVKGGELTLGMHAKDSGFSIVNTDKCNIVDEDFRIILKTVVEYFRKKDLPIYKVMQHVGYLRNLVVRKAKNTGEILIALVTTSQVDFDLTELTEILKSINYLGELKGILHVINDGLADMVRGDKIVTLFGQDYITERILDLKFKMSLFSFFQTNSKGAEKLYSEVLEFLGDVSNKTVFDLYCGTGTIGQLASKKAEKVIGIELIEEAVEAAKENTKLNNISNCSFIAGDVAKVITEIKEKPDTIILDPPRPGVSPNAMKYVIKFNAPEIVYVSCNPKTLVNDLGVLRAYGYEVEKVKIVDMFPGTGHVETVVLLQRKIIEGHHHHHH | soluble
MKCQKDDPICHLRDDMQDGDNSVNRTVSHLFQLTLTILTRVYSNLNEISLVCQSWNLHAESSGIYKIPQKVQISLLKTFETNREAKSKNLLDPVLLDQFANQSIRAHSLLLLPYSTTRYKTWTGKTFSKHNLIDEFVGKSFECATESFCPDPCCSGIPSVVRSSSKYAPLCKMNSCQKASTCIVKHFENDDLSKLRLNQFNVNCGCEEPGTIYRPDIGRCVHHNPCTKQSLCRDFGQECVNTASGYKCVCQLGYFRNGSNSCAPLKFSAPVYHGFALSEEMDEL | not soluble
MKETVTMLNQQYVVPEGLQPYQGVTANSPWLASETEKRRRKICDSLEEAIRRSGLKNGMTISFHHAFRGGDKVVNMVMAKLAEMGFRDLTLASSSLIDAHWPLIEHIKNGVVRQIYTSGLRGKLGEEISAGLMENPVQIHSHGGRVKLIQSGELNIDVAFLGVPCCDEFGNANGFSGKSRCGSLGYAQVDAQYAKCVVLLTEEWVEFPNYPASIAQDQVDLIVQVDEVGDPEKITAGAIRLSSNPRELLIARQAANVIEHSGYFCDGFSLQTGTGGASLAVTRFLEDKMRRHNITASFGLGGITGTMVDLHEKGLIKALLDTQSFDGDAARSLAQNPHHIEISTNQYANPASKGAACERLNVVMLSALEIDVNFNVNVMTGSNGVLRGASGGHSDTAAGADLTIITAPLVRGRIPCVVEKVLTTVTPGASVDVLVTDHGIAVNPARQDLLDNLRAAGVALMTIEQLQQRAEQLTGKPQPIEFTDRVVAVVRYRDGSVIDVIRQVKG | soluble
MSLNVLHVASECNPFFKTGGLADVLGSLPKALIKQGINVSVILPKYGHLSDEWQNQLTLKKSFTVSVTWRNQYCGLEQFVDQGVTYYFIDNEYYFKRERLYGYLDEAERFTFFNHAVLSSLPFLDESPDLIHCHDWQSGLIPAYMKTGSVENPVPTVFTIHNLRYQGAFPPDVFRELLHFAPEHFAGLEMDGAINFLKGALVHSDRVTTVSPTYAQEIQTPAFGEGLHGLLHQERGKTRGILNGIDLEDFDPKTDPHVTYPYKHNQMEKRKNKQVIQRLFELPERKDIPLIAMVSRLVEEKGVPLLTQIAGELVTTENVQLAILGTGDPSLEDQLHHLASLHPHQISFKCVFAEPLARKLYAGADLFIMPSRFEPCGLSQMISLRYETVPIVRETGGLYDTIQSYNEEIGEGNGFSFTHYNAHDFLYTIKRALRFYRTEKEWENLLLNIYSSEVGWDVSAKQYTALYEEILGKRKVEAEGHHHHHH | not soluble
MAHHHHHHMRRWLRNVRGGLLHPRAARLMVSCGKTHGLHMVSTVSRNTETEDEEIRDNESFPHQDDDDESVTEISEEMMRSLPKAPPKLRSAGSLLSTEEQEQLTRMIFKAHYAGEGMGENDRAMWYQSALEIHWLEEWAYEEFDGQTQRDVARRAVKKAVLQRVDLHKPLAYIIGHQPFYGCDIRCSPPLLCPRPETEMWTHWLVRTWLSKIPETTQPLRVLDMCCGTGCVGIAIAKHVPSAQVTAVDILDEAIGASEENAKLNGLEASRFCTLKSDMFESFLVSNSGSLTGEDTKLDLKKKEPAAEHAGSFDIIVSNPPYVLPDQYTDLPPGIKLWESKLALVGDEKREQQQYLYFQELSEFGSLLLKPKAMRNPALCAAPNIVIEVGLQAEQVASVMEKSKLWENVEIHLDYAQQMRWITASSSH | not soluble
NLSSEYVKDIYAYLRQLEAAQAVRPKYLLGREVTGNMRAILIDWLVQVQMKFRLLQETMYMTVSIIDRFMQNNSVPKKMLQLVGVTAMFIASKYEEMYPPEIGDFAFVTDNTYTKHQIRQMEMKILRALNFGLGRPLPLHFLRRASKIGEVDVEQHTLAKYLMELTMLDYDMVHFPPSQIAAGAFSLALKILDNGEWTPTLQHYLSYTEESLLPVMQHLAKNVVMVNQGLTKHMTVKNKYATSKHAKISTLPQLNSALVQDLAKAVAKV | soluble
MVIKFSSNTTNPPTMIYMGVDKVENEDLIKYGWPEDVWFHVDKLSSAHVYLRLHSGMTIDSIPEALLIDCCQLVKQNSIEGCKLNNVAIVYTMWSNLKKTGDMAVGQVGFHSHKQVKHTVVPTKINEIVNRLEKTRRKDDIDYKEERDARDAKERQKLKKLEQERKDREKKEMLAQNEKKRIEGYEDVDWDAGATTRNDVDPGNLSDDFM | not soluble

Source: the DeepSol protein solubility set
